Experimental findings from patent US20200255504A1 (VIB VZW, published 2020) are described below.

Positions count from the first letter of the chain named. Where “and” joins values, the source holds several entries; their conditions need not be identical. Equal entries are not always repeated. Where only a bound is given, the exact number is not on record here.

In test [1] the target is T1, horse serum albumin (horse, UniProt P35747 25-607).
T1 construct: also called horse SA; horse albumin
Put plainly: BLI Octet RED96, albumin on AR2G sensors, VHH 800-12.5 nM, 1:1 model. For orientation: Biolayer interferometry detects binding as a change in optical thickness at a sensor tip.
Experimental: (§1) 10 mg of lyophilized cat, dog, horse or pig serum (HSA) albumin (Sigma) was resuspended in 1 mL of PBS (10 μg/μL). This was used at 20 μg/mL in the “Ligand scouting immobilization conditions” protocol for AR2G Biosensors as detailed in Fortebio Technical Note 26, in conjunction with a Fortebio Octet Red96 machine. Only the pH 5.0 and pH 4.0 condition were tested.
(§2) After data acquisition, the profiles were analyzed using the Octet Data analysis software v9.0.

Test [2] has as its target T2, dog serum albumin (dog, UniProt P49822 25-608).
T2 construct: also called dog SA; dog albumin
The description is as above.
Experimental: as §1, §2

Test [3] addresses T3, rabbit serum albumin (rabbit, UniProt P49065 25-608).
T3 construct: also called rabbit albumin
Put plainly: BLI Octet RED96, albumin on AR2G sensors, VHH 1600-25 nM.

Test [4] addresses T4, mouse serum albumin (mouse, UniProt P07724 25-608).
T4 construct: also called mouse albumin
Put plainly: BLI Octet RED96, mouse albumin, reference SA1_S30K.

Test [5] has as its target T5, human serum albumin (human, UniProt P02768 25-609).
T5 construct: also called HSA; human albumin
Put plainly: BLI Octet RED96, HSA on AR2G sensors, VHH 100-1.5 nM.

For test [6], the target named is T5, human serum albumin. Put plainly: BLI off-rate screen, periplasmic extract 1/4 in 75 mM NaAc pH 5.5, HSA on AR2G sensors.
Experimental: (§3) Off-rate was analyzed by BioLayer Interferometry on an Octet RED96 (Fortebio) instrument using human serum albumin (HSA) coated Octet AR2G sensors (HSA was coupled at 20 μg/mL at pH 5.0 as detailed in Fortebio Technical Note 26).
The target in test [7] is T6, rat serum albumin (rat, UniProt P02770 25-608).
T6 construct: also called rat albumin
Put plainly: BLI Octet RED96, rat albumin, reference SA1_S30K.

Test [8] concerns the target T7, bovine serum albumin (bovine, UniProt P02769 25-607).
T7 construct: also called bovine albumin
Put plainly: BLI Octet RED96, albumin on AR2G sensors.

Test [9] concerns the target T8, cynomolgus monkey serum albumin (cynomolgus monkey).
T8 construct: also called cyno albumin
Put plainly: BLI Octet RED96, albumin on AR2G sensors, VHH 100-1.5 nM.

Test [10] deals with T5, human serum albumin. The test is described as above.
The target in test [11] is T4, mouse serum albumin. The description is as above.
Test [12] has as its target T6, rat serum albumin. The description is as above.
The target of test [13] is T5, human serum albumin. Put plainly: BLI Octet RED96, HSA on AR2G sensors, VHH 100-1.5 nM (column head says nM; values look like M).
Test [14] concerns the target T5, human serum albumin. Put plainly: BLI off-rate screen, periplasmic extract 1/4 in PBS, HSA on AR2G sensors.
Experimental: as §3
Test [15] has as its target T9, cat serum albumin (cat, UniProt P49064 25-608).
T9 construct: also called cat SA
Put plainly: BLI Octet RED96, albumin on AR2G sensors.
Experimental: as §1, §2

Test [16] concerns the target T10, pig serum albumin (pig, UniProt P08835 25-607).
T10 construct: also called pig SA
Put plainly: BLI Octet RED96, albumin on AR2G sensors.
Experimental: as §1, §2

Test [17] addresses T8, cynomolgus monkey serum albumin. Put plainly: BLI Octet RED96, albumin on AR2G sensors (as in Example 4).
Test [18] concerns the target T5, human serum albumin. Described as above.
Test [19] deals with T5, human serum albumin. Put plainly: BLI Octet RED96, HSA on AR2G sensors.
Test [20] concerns the target T5, human serum albumin. Put plainly: affinity determination, method not stated.

B1: SA1 VHH (VHH)
VHH: QVQLQESGGGLVQAGGSLRLSCAASGRNISEYVMGWFRQAPGKEREFVAAISWSAGNIYYADSVKGRFTISRDNAKNTVHLQMNTLRPEDTAVYYCAAGRYSAWYVAAYEYDYWGQGTQVTVSS
notes: From WO2014/037419; made in E. coli WK6 periplasm; also called non-mutated SA1; original SA1 VHH
B1: the Kd (as a rule, the constant that tells how readily two partners part at equilibrium) came to 121 nM in test [1]; 126 nM in test [2]; 600 nM in test [3]; 0.37 nM in test [9]; 0.9 nM in [10]; 0.66 nM in test [11]. Moreover, the Kd in test [12] came out at 0.45 nM; in [13] it was 1.15 nM. In addition, the koff – broadly, the rate constant with which the complex falls apart – was 0.00483 s⁻¹ in test [1]; 0.0158 s⁻¹ in [2]; 0.00022 s⁻¹ in [5]; 0.000972 s⁻¹ and 0.00119 s⁻¹ in [6]; 0.00222 s⁻¹ and 0.00199 s⁻¹ in test [14]. Also, the kon (usually a measure of how fast the partners come together) in test [1] is 52100 M⁻¹ s⁻¹; in test [2], 123000 M⁻¹ s⁻¹. The “fold lower affinity than SA1_S30K” value in test [4] was determined as 2 fold; in [7] it was 20 fold. The binding result in [8] is reported as “no binding”; in test [15] it was “no binding (tested: 800 nM (highest concentration))”; in test [16] it was “no binding (tested: 800 nM (highest concentration))”.

B2: SA1-biotinylated (VHH)
VHH: B1 VHH
modifications: labeled with NHS-PEG4-Biotin at a 5/1 molar ratio of biotin/VHH; labelled residues not determined
notes: also called biotinylated SA1
In the case of B2, the koff in [5] came out at 0.000166 s⁻¹. For the same molecule, binding in test [13] was characterised by a dissociation constant (Kd) of 1.97 nM.

B3: SA1_S30K humanized variant 1 VHH (VHH)
VHH: B1 VHH with Q1E, A14P, S30K, A75S, Q119L
notes: also called h1
On to B3, for which the Kd in test [17] came to 0.36 nM; in test [18], 1.33 nM.

B4: SA1_S30K humanized variant 3 VHH (VHH)
VHH: B1 VHH with Q1E, A14P, S30K, A75S, T85S, Q119L
notes: also called h3
With B4, the Kd stood at 0.29 nM in test [17] and 1.64 nM in test [18].

B5: SA1_S30K VHH (VHH)
VHH: B1 VHH with S30K
notes: Made in E. coli WK6 periplasm; also called SA1_S3OK; SA1_S30K mutant variant
Turning to B5, the Kd in test [1] is 201 nM; in [2], 160 nM; in test [9] it was 0.38 nM; in [10], 0.91 nM; in test [11], 0.29 nM; in [12], 0.02 nM. Besides, the results for the Kd in test [13], in test [17] and in test [18] were 0.825 nM, 0.57 nM and 1.28 nM, respectively. Further, the koff in test [1] is 0.0103 s⁻¹; in test [2], 0.0181 s⁻¹; in test [5], 0.000203 s⁻¹; in test [6], 0.00181 s⁻¹; in [14], 0.00141 s⁻¹. Also, the figures for the kon in [1] and in test [2] were 59100 M⁻¹ s⁻¹ and 166000 M⁻¹ s⁻¹, respectively. The Response in test [6] was determined as 0.438 nm; in test [14], 0.25 nm. The binding result is on record as “no binding” in [8], “no binding (tested: 800 nM (highest concentration))” in [15] and “no binding (tested: 800 nM (highest concentration))” in test [16].

B6: SA1_S30K-biotinylated (VHH)
VHH: B1 VHH with S30K
modifications: labeled with NHS-PEG4-Biotin at a 5/1 molar ratio of biotin/VHH; the filing says the higher signal is likely related to the additional lysine at position 30; labelled residues not determined
notes: also called biotinylated SA1_S30K VHH
B6: the koff in test [5] amounted to 0.000187 s⁻¹. In addition, in test [19], the “fold change in KD or kon or koff against the unbiotinylated VHH” value was < 2 fold. The molecule also showed a dissociation constant Kd in test [13] of 1.49 nM.

B7: SA1_S30K humanized variant 2 VHH (VHH)
VHH: B1 VHH with Q1E, A14P, S30K, A75S, H80Y, Q119L
notes: also called h2
For the molecule B7, the Kd in test [17] was 0.5 nM; in [18] it was 1.53 nM.

B8: SA1_S30K humanized variant 4 VHH (VHH)
VHH: B1 VHH with Q1E, A14P, S30K, A75S, H80Y, T85S, Q119L
notes: also called h4
Regarding B8, the Kd is 0.32 nM in [17] and 2.11 nM in test [18].

B9: VHH-GFP-SA1_S30K (bispecific antibody)
chain: QVQLQESGGALVQPGGSLRLSCAASGFPVNRYSMRWYRQAPGKEREWVAGMSSAGDRSSYEDSVKGRFTISRDDARNTVYLQMNSLKPEDTAVYYCNVNVGFEYWGQGTQVTVSSGGSGGSGGSGGSGGSGGSGGSGGSGGSGGSGGSGGSGGSGGSGGSGGSGGSGGSGGSGGSQVQLQESGGGLVQAGGSLRLSCAASGRNIKEYVMGWFRQAPGKEREFVAAISWSAGNIYYADSVKGRFTISRDNAKNTVHLQMNTLRPEDTAVYYCAAGRYSAWYVAAYEYDYWGQGTQVTVSS
notes: also called VHH-GFP-SA26
On to B9, for which binding in test [20] was characterised by a dissociation constant (Kd) of 5 nM.
